Target: transferrin receptor on HeLa S3 cells (human) (UniProt P02786)
Experiment: radioiodinated transferrin on HeLa S3 cells, no competitor

transferrin receptor on HeLa S3 cells (human), sequence (P02786 whole entry): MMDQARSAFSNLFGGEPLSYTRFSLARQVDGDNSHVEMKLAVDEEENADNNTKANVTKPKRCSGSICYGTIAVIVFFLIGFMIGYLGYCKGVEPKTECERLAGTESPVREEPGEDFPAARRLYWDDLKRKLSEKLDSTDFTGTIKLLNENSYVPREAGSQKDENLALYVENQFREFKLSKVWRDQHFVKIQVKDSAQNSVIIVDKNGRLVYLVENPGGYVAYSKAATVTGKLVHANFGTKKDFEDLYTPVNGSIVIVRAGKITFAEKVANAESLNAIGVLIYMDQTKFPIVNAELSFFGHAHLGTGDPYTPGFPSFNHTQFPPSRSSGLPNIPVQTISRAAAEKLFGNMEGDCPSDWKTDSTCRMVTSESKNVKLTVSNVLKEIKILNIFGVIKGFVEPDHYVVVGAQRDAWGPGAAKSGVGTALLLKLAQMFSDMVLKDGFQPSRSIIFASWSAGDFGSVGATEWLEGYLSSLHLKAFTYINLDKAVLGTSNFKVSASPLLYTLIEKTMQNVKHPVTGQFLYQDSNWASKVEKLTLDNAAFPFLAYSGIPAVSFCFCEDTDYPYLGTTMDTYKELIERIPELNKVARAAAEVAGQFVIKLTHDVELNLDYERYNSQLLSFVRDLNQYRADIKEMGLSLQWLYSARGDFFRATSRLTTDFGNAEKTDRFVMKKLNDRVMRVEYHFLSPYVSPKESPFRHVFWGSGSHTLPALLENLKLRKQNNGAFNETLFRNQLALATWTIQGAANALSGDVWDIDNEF

- TF/cell in the absence of competitor: 328000 TF/cell
- cpm bound in the absence of competitor: 7480 cpm
Substance: radiolabeled diferric transferrin

— patent publication US20050054043A1
